Assay results as given in US20050130232A1, “Methods of screening for compounds that modulate hormone receptor activity” (Allergan, Inc., priority 2001, published 2005).

Experiments:
[1] = system: T1, Flag-RXRα (human retinoid X receptor α fused to the Flag epitope tag)
T1 sequence: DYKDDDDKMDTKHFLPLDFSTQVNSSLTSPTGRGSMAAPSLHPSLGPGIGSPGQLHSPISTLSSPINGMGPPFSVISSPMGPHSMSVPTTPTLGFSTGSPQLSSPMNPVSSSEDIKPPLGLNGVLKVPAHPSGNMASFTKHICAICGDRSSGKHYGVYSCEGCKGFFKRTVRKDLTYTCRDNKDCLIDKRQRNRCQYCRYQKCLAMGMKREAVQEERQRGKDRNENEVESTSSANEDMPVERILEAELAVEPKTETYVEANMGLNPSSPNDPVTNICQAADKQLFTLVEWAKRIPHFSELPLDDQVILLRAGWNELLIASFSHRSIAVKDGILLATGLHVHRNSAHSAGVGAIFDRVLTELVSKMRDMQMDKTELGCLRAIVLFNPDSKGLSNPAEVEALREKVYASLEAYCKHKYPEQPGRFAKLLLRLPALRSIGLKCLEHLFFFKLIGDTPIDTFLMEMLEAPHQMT

[2] = biological target: Flag-tagged PH-RXRα (Flag tag, pleckstrin homology domain of human insulin receptor substrate-1, human RXRα) (UniProt P35568)
[3] = biological target: protein kinase A activity endogenous to HEK 293 cells (co-immunoprecipitated with tagged RXRα); assay: cell-based or functional assay
[4] = system: protein kinase A activity associated with RXRα; assay: Protein kinase A activity in anti-Flag immunoprecipitates of PH-RXRα or RXRα transfected HEK 293 cells, synthetic peptide substrate; type: cell-based, human; settings: PH-RXRα, ligand-treated cells, inhibitor added to kinase reaction, substrate LRRASLG
Experimental: 293 cells were transfected with PH-RXRα. Sample 1: 0.1% DMSO (10 minutes). […] Sample 3: 0.1% DMSO (30 minutes).
Sample 1: 0.1% DMSO (10 minutes). […] Sample 3: 0.1% DMSO (30 minutes). […] Sample 5: No immunoprecipitate.
Sample 1: 0.1% DMSO. […] Sample 3: 0.1% DMSO with PKA inhibitor. […] Sample 5: 0.1% DMSO.
Following immunoprecipitation with anti-Flag antibody, the synthetic PKA substrate, LRRASLG (SEQ ID NO: 59), was added to the immunoprecipitate along with γ-ATP.
HEK 293 were cultured and transfected essentially as described above. Immunoprecipitates were prepared using the anti-Flag antibody, M2, as described above. Assays for protein kinase A activity were performed as follows. Immunoprecipitated complexes were resuspended in 40 μl of Kinase Assay Buffer (30 mM Tris-HCl, pH 7.4 and 10 mM MgCl2). Kinase reactions were initiated by addition of 10 μl of 500 μM synthetic peptide LRRASLG (SEQ ID NO: 59) or […] (SEQ ID NO: 60) prepared by Upstate Biotechnology (Lake Placid, N.Y.) and addition of 50 μM [γ-^32P]ATP (10 μCi) to the immune-complexes. […]
Incorporated ^32P was separated from free label by applying the reaction mixture onto P81 phosphocellulose paper and subsequently washing the paper three times with 0.75% phosphoric acid and once with acetone. Protein kinase reaction samples were analyzed in a scintillation counter to determine the amount of ^32P-incorporation.

[5] = biological target: T2, RXRα phosphorylation by protein kinase A (Homo sapiens, UniProt P19793); assay: Phosphorylation of immunoprecipitated RXRα by purified PKA; type: biochemical; settings: inhibitor added to kinase reaction
T2 construct: host or cells: HEK293
T2 sequence (P19793 1-462): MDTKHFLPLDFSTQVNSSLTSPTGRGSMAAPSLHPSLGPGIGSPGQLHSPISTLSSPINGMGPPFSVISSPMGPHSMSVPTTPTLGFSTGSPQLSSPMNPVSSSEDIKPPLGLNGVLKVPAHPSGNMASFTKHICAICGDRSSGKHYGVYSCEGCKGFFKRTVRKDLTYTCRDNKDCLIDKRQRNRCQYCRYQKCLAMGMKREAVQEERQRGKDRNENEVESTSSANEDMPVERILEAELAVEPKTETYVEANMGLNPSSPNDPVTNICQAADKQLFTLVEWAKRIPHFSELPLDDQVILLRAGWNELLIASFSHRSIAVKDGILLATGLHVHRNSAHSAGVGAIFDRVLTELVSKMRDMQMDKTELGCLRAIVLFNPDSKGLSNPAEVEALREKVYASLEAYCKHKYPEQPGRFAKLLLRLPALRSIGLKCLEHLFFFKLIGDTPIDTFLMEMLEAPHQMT
Experimental: Left panel: Cells were immunoprecipitated with anti-FLAG antibody, and the immunoprecipitates analyzed by SDS-PAGE and blotting with anti-PKA antibody. Right panel: Cells were immunoprecipitated with anti-PKA antibody, and the immunoprecipitates analyzed by SDS-PAGE and blotting with anti-FLAG antibody. B. Phosphorylation of RXRα by PKA. […] PKA I and PKC I indicate inhibitors of PKA and PKC, respectively.
RXRα-containing immunoprecipitates prepared with anti-Flag antibody were incubated with purified catalytically active PKA (Upstate Biotechnology) and […]; in addition, protein kinase A inhibitor or protein kinase C inhibitor was added to some reactions as indicated. The kinase reaction products were analyzed by SDS-PAGE.

[6] = biological target: protein kinase A activity endogenous to 3T3-L1 adipocytes; assay: cell-based or functional assay
[7] = system: protein kinase A; assay: Km of synthetic peptide substrates for protein kinase A; type: biochemical
[8] = system: protein kinase A; settings: specific PKA substrate; cited from earlier work

Substance: protein kinase A activity endogenous to HEK 293 cells (co-immunoprecipitated with tagged RXRα)
- protein kinase A activity in anti-Flag immunoprecipitates (32P incorporation into LRRASLG) [1]: protein kinase A activity associated with RXRα lacking a fused pleckstrin homology domain was significantly enhanced in cells treated with 10^-7 M AGN194204 as compared to control vehicle
- protein kinase A activity in anti-Flag immunoprecipitates (32P incorporation into LRRASLG) [2]: significantly more protein kinase A activity was detected in immunoprecipitates from cells treated with AGN194024 ligand than in immunoprecipitates treated with control vehicle

Substance: purified catalytically active PKA (Upstate Biotechnology)
- in vitro phosphorylation of immunoprecipitated RXRα by purified PKA (SDS-PAGE) [1]: RXRα was phosphorylated, and the extent of phosphorylation was increased by addition of RXRα ligand, AGN194204

Substance: Flag-tagged PH-RXRα (Flag tag, pleckstrin homology domain of human insulin receptor substrate-1, human RXRα) (from UniProt P35568 12-115)
- protein kinase A activity in anti-FLAG immunoprecipitates (32P incorporation into …), AGN194204-treated against DMSO-treated cells [3]: > 2 fold

Substance: RFARKGALRGKNV
- inhibition of RXRα-associated PKA activity [4]: not
- inhibition of RXRα phosphorylation by purified PKA [5]: not

Substance: endogenous RXRα of untransfected 3T3-L1 adipocytes (from UniProt P28700 1-467) (receptor)
- PKA activity in anti-RXRα (D20) immunoprecipitates (32P incorporation into SEQ ID NO: 59), ligand-treated against vehicle-treated cells [6]: 2 fold

Substance: GRTGRRNSI [SEQ ID NO: 60, specific protein kinase A substrate]
- fold higher Vmax than kemptide ([7]; relative to kemptide): about 2 fold
- fold lower Km than kemptide ([7]; relative to kemptide (SEQ ID NO: 59)): approximately 40 fold
- Km [8]: 0.11 µM
